The text below walks through data of paper PMC11451537, “P2X7 receptors exhibit at least three modes of allosteric antagonism” (Science Advances, 2024).

The data set concerns the molecule itself. As to the kind of experiment: cryo-EM structure; purified rP2X7 in 20 mM Hepes pH 7.0, 100 mM NaCl, 0.5 mM C12M (DDM), incubated 1 hour with small-molecule antagonist (about 200 to 400 uM); six antagonist-bound structures at 2.2 to 2.7 A.

B1: full-length, wild-type rat P2X7 receptor (receptor, UniProt Q64663 1-595, looked up)
chain: MPACCSWNDVFQYETNKVTRIQSVNYGTIKWILHMTVFSYVSFALMSDKLYQRKEPLISSVHTKVKGVAEVTENVTEGGVTKLVHGIFDTADYTLPLQGNSFFVMTNYLKSEGQEQKLCPEYPSRGKQCHSDQGCIKGWMDPQSKGIQTGRCIPYDQKRKTCEIFAWCPAEEGKEAPRPALLRSAENFTVLIKNNIDFPGHNYTTRNILPGMNISCTFHKTWNPQCPIFRLGDIFQEIGENFTEVAVQGGIMGIEIYWDCNLDSWSHRCQPKYSFRRLDDKYTNESLFPGYNFRYAKYYKENGMEKRTLIKAFGVRFDILVFGTGGKFDIIQLVVYIGSTLSYFGLATVCIDLIINTYASTCCRSRVYPSCKCCEPCAVNEYYYRKKCEPIVEPKPTLKYVSFVDEPHIWMVDQQLLGKSLQDVKGQEVPRPQTDFLELSRLSLSLHHSPPIPGQPEEMQLLQIEAVPRSRDSPDWCQCGNCLPSQLPENRRALEELCCRRKPGQCITTSELFSKIVLSREALQLLLLYQEPLLALEGEAINSKLRHCAYRSYATWRFVSQDMADFAILPSCCRWKIRKEFPKTQGQYSGFKYPY
notes: P2X7 receptor (P2X purinoceptor 7), rat; also called rP2X7; source: HEK293 GNTI- cells, BacMam baculovirus transduction; purified (DDM/CHS solubilisation, TALON resin, HRV 3C digestion, Superdex 200 SEC)
On to B1, for which the stoichiometry N (usually the number of molecules, sites or subunits per partner or assembly) was 3.
